Several values for one entry are separate records, joined by “and”; a condition that tells them apart may be missing. Equal values may be shown once. Blank lines part the entries; values can stand above or below the binder they belong to.
What was measured:
[1] = biological target: T1, Mouse TrkB ectodomain protein (R&D #1494-TB/CF) (mouse, UniProt P15209 32-429); test: SPR (Biacore), TrkB ectodomain immobilised on CM5, antibody injected
T1 construct: extracellular domain; Bought protein; also called mouse TrkB-extracellular domain protein

[2] = biological target: T2, rhTrkB-ECD (R&D #397-TR/CF) (human, UniProt Q16620 32-430); test: as above
T2 construct: extracellular domain; Bought protein; also called human TrkB-extracellular domain protein; human TrkB ectodomain protein

rhTrkB-ECD-His = biological target: T3, rhTrkB-ECD-His (human, UniProt Q16620 32-430); test: competition ELISA: plate coated with rhTrkB-ECD-His; biotinylated humanized TOA-1 at 25 ng/ml mixed with unlabeled huTOA-1; streptavidin-HRP
T3 construct: extracellular domain

[3] = biological target: T2, rhTrkB-ECD (R&D #397-TR/CF); test: competition ELISA: plate coated with rhTrkB-ECD; biotinylated chimeric TOA-1 at 25 ng/ml mixed with the unlabeled antibody; streptavidin-HRP
[4] = biological target: T4, TrkB, Cat (Felis domesticus) on 293 cells (cat (Felis domesticus)); test: cell-based ELISA on transfected 293 cells
T4 construct: Whole entry with signal peptide; also called cat TrkB

[5] = biological target: T5, mouse TrkB (nm_001025074) on HEK293 cells (mouse, UniProt P15209 32-821); test: cell-based ELISA on transfected 293 cells
T5 construct: whole, on cells; also called rmuTrkB-CRE

[6] = biological target: T6, recombinant human TrkC-Fc (rhTrkC-ECD, R&D system, 373-TC/TF) (human, UniProt Q16288 32-429); test: direct binding ELISA: plate coated with rhTrkC-ECD (Fc chimera) at 5 ug/ml, biotinylated antibody, streptavidin-HRP
T6 construct: extracellular domain; Bought protein; not shown: Fc part, not described

[7] = biological target: hTrkB-a isoform fused to a small peptide epitope, in U2OS cells (Discoverx Pathhunter) (human, UniProt Q16620 32-822); test: cell-based or functional assay
[8] = biological target: hTrkC in the SHC1 recruitment assay (U2OS, Discoverx Pathhunter) (human, UniProt Q16288 32-839); test: cell-based or functional assay
[9] = biological target: hTrkA in the SHC1 recruitment assay (U2OS, Discoverx Pathhunter) (human, UniProt P04629 33-796); test: cell-based or functional assay
[10] = biological target: T7, human TrkB (open reading frame from nm_006180) on HEK293 cells (human, UniProt Q16620 32-822); test: cell-based or functional assay
[11] = biological target: T7, human TrkB (open reading frame from …); test: cell-based or functional assay; remark: listed apart in the source
[12] = biological target: T4, TrkB, Cat (Felis domesticus) on 293 …; test: cell-based ELISA on transiently transfected HEK293 cells
[13] = biological target: T5, mouse TrkB (nm_001025074) on HEK293 …; test: as above
[14] = biological target: T8, human p75NTR (open reading frame from NM_002507) on HEK293 cells (human, UniProt P08138 29-427); test: FACS on transiently transfected HEK293 cells, FITC-labeled mouse anti-human IgG
T8 construct: whole, on cells; also called hu p75NTR
T8 sequence (looked up): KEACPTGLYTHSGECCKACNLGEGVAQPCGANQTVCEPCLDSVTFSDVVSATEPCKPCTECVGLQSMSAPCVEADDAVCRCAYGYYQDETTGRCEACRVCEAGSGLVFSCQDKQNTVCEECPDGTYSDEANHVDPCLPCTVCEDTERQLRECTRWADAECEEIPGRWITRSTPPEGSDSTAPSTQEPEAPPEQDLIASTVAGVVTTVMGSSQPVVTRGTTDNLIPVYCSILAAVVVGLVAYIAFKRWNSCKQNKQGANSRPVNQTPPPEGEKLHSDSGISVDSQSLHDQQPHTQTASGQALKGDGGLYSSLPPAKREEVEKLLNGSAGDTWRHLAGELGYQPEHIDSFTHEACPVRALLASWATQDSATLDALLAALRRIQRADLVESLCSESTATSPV

Chimeric TrkB (d4TrkA) = biological target: T9, Chimeric TrkB (d4TrkA) (human); test: cell-based ELISA on transfected 293 cells
T9 construct: TrkB residues 190-282 replaced by TrkA residues 187-281

[15] = biological target: T10, recombinant human TrkA-Fc (rhTrkA-ECD, R&D system, 175-TK) (human, UniProt P04629 33-423); test: direct binding ELISA: plate coated with rhTrkA-ECD (Fc chimera) at 5 ug/ml, biotinylated antibody, streptavidin-HRP
T10 construct: extracellular domain; Bought protein; not shown: Fc part, not described

[16] = biological target: Human TrkA, NP_002520, cell-surface expressed on transfected 293 cells (human, UniProt P04629 33-796); test: cell-based ELISA on transfected 293 cells, HRP-conjugated secondary antibody, TMB, OD450
Chimeric TrkA (d4TrkB) = biological target: T11, Chimeric TrkA (d4TrkB) (human); test: as above
T11 construct: TrkA residues 187-281 replaced by TrkB residues 190-282

Chimeric TrkB (d5TrkA) = biological target: T12, Chimeric TrkB (d5TrkA) (human, UniProt Q16620 32-822); test: as above
T12 construct: TrkB residues 284-377 replaced by TrkA residues 280-377

[17] = biological target: T13, Recombinant human CCL20 (Peprotech) (human, UniProt P78556 27-96); test: SPR stoichiometry, Ab captured on protein A, cytokine at saturation, N = 1
[18] = biological target: T14, Recombinant human IL13 (R&D Systems) (human, UniProt P35225 35-146, limits assumed); test: SPR stoichiometry, antibody captured on protein A
[19] = biological target: T14, Recombinant human IL13 (R&D Systems); test: SPR stoichiometry, Ab captured on protein A, cytokine at saturation, N = 2
[20] = biological target: T13, Recombinant human CCL20 (Peprotech); test: as above

T5 sequence (P15209 32-821): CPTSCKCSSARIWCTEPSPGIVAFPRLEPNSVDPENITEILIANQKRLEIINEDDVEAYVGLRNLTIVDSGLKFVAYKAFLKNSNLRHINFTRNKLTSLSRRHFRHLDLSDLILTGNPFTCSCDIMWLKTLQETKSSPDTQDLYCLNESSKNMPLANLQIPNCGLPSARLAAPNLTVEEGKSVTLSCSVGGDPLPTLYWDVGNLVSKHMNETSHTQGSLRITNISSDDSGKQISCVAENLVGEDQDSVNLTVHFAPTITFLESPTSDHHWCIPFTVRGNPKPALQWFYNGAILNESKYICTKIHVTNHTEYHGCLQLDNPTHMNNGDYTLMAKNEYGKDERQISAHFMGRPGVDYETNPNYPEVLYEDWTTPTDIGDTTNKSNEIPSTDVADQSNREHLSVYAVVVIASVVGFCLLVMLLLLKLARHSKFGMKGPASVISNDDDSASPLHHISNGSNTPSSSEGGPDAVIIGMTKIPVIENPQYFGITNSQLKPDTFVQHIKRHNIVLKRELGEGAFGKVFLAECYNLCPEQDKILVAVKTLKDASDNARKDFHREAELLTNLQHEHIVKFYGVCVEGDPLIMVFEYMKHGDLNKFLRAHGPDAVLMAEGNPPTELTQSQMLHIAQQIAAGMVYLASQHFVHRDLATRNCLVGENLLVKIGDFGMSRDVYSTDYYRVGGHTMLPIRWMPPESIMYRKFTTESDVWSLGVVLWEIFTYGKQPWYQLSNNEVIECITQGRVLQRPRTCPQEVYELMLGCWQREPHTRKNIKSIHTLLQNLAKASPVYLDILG
T7 sequence (Q16620 32-822): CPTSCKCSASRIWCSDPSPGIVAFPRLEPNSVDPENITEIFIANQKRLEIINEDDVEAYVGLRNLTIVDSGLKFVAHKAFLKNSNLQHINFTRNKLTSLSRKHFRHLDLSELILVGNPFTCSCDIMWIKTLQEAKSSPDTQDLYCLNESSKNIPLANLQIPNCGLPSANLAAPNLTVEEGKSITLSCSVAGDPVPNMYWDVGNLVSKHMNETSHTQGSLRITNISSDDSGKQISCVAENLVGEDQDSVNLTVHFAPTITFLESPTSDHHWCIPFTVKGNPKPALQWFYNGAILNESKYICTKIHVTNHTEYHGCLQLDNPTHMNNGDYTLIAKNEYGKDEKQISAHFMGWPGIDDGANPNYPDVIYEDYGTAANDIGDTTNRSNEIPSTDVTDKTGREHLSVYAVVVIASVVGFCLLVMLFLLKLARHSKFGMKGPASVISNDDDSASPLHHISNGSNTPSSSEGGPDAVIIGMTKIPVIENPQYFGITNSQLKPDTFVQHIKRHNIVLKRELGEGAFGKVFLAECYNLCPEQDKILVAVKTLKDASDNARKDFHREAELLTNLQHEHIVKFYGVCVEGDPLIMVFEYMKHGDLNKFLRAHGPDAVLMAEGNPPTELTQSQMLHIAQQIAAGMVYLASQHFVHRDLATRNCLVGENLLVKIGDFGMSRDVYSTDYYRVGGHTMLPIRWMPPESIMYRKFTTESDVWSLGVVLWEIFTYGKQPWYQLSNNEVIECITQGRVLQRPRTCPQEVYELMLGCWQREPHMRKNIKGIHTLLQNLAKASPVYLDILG
T4 sequence (chain, as listed by the source limits assumed): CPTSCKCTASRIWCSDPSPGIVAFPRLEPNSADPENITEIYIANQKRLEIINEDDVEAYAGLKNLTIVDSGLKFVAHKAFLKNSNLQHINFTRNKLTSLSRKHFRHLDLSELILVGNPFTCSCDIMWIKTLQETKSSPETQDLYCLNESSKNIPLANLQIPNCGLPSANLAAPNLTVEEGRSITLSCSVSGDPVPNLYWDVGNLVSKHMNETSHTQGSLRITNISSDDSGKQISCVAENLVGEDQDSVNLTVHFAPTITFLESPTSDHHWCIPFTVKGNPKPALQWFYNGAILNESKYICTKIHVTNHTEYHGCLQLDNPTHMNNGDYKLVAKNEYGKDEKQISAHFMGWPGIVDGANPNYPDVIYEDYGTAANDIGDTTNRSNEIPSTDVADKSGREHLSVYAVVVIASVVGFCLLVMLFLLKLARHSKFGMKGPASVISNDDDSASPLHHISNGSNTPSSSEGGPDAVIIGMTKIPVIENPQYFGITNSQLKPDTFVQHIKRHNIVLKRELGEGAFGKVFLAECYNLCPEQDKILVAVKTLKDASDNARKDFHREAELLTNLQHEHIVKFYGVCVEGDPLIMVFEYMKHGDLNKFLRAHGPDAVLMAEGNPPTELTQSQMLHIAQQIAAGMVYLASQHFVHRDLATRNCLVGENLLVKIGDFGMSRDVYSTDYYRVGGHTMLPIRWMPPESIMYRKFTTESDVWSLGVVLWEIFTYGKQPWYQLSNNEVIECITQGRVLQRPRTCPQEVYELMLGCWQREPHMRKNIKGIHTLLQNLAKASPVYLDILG
T13 sequence (P78556 27-96 limits assumed): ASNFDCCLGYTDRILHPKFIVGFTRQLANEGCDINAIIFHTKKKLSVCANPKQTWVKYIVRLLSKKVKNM
T2 sequence (Q16620 32-430): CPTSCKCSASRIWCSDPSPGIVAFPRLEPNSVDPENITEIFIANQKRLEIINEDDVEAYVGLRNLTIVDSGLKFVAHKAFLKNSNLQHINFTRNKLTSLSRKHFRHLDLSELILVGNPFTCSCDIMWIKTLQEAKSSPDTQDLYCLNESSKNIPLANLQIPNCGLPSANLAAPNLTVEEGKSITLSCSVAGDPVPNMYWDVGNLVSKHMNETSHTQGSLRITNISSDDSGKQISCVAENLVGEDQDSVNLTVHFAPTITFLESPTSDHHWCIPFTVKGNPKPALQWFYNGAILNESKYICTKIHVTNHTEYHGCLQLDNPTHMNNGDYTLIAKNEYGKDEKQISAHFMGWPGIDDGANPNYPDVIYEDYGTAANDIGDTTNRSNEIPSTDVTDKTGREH
T1 sequence (P15209 32-429): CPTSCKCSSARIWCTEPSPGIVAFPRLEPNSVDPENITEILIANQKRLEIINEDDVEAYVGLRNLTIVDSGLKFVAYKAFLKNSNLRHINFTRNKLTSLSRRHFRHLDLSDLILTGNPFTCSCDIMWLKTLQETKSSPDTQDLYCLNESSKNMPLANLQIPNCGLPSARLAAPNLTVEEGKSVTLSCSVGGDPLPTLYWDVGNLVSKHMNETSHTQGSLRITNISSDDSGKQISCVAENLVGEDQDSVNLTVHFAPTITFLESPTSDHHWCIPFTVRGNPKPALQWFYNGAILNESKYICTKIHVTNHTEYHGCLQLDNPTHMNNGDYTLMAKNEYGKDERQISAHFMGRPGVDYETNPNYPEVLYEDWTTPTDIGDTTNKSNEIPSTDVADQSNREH
T14 sequence (P35225 35-146 limits assumed): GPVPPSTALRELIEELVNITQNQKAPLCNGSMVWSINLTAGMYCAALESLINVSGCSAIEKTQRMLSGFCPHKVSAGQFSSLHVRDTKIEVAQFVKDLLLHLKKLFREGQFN
hTrkB-a isoform fused to a small peptide epitope, in U2OS cells (Discoverx Pathhunter), sequence (Q16620 32-430): as the sequence (Q16620 32-430) above
hTrkC in the SHC1 recruitment assay (U2OS, Discoverx Pathhunter), sequence (Q16288 32-839): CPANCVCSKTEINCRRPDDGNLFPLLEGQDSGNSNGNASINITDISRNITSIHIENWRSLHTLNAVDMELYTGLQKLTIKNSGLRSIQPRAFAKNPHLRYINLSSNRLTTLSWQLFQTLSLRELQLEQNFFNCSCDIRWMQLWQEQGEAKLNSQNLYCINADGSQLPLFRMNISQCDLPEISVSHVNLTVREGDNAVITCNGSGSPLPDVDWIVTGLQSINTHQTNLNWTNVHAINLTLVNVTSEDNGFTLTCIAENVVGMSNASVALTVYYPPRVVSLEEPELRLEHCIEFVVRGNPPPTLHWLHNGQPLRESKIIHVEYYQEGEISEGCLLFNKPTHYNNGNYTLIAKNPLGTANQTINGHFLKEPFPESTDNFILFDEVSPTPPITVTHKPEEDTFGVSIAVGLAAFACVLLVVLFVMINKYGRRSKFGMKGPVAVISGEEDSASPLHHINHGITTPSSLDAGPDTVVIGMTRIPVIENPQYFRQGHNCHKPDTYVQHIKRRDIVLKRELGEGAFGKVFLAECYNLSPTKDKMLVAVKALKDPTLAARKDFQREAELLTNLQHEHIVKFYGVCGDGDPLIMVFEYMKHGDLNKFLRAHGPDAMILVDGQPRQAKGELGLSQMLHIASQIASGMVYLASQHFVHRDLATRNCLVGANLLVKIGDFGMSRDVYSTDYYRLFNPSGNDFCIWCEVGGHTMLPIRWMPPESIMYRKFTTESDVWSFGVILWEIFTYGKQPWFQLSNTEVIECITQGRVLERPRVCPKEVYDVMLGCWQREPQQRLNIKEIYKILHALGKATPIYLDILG
T10 sequence (P04629 33-423): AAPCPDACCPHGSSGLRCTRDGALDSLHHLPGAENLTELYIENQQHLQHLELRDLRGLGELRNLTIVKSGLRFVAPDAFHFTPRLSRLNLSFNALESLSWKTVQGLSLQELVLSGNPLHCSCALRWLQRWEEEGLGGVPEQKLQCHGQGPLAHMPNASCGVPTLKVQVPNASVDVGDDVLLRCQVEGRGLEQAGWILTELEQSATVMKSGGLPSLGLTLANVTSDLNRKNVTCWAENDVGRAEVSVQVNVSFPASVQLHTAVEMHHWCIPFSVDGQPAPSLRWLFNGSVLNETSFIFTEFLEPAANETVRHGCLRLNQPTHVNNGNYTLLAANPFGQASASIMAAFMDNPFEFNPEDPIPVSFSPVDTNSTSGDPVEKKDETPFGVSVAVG
T3 sequence (Q16620 32-430): as the sequence (Q16620 32-430) above

Kd [1]: 11.4 nM
Kd [2]: 9.4 nM
IC50 (read off the curve) (rhTrkB-ECD-His): ~8 nM
IC50 (read off the curve) [3]: ~6 nM
EC50 [4]: 0.52 nM
EC50 [5]: 0.33 nM
binding result [6]: no binding (tested: about 6.7 nM)
EC50, SHC1 recruitment assay [7]: 0.67 nM
Fold-increase, SHC1 recruitment assay [7]: 5.2 fold
Fold-increase, SHC1 recruitment assay [8]: 1 fold
Fold-increase, SHC1 recruitment assay [9]: 1.1 fold
EC50, hTrkB Cre-luc reporter assay, lot L40042-192 [10]: 0.24 nM and 0.39 nM and 0.61 nM
EC50, hTrkB Cre-luc reporter assay, lot L42385-008 [10]: 0.25 nM and 0.37 nM
EC50, hTrkB Cre-luc reporter assay, lot L42385-024 [10]: 0.13 nM
EC50, hTrkB Cre-luc reporter assay, lot L42385-152 [10]: 0.1 nM
Fold-increase, hTrkB Cre-luc reporter assay, lot L42385-024 [10]: 5.3 fold
Fold-increase, hTrkB Cre-luc reporter assay, lot L42385-152 [10]: 4.5 fold
Cre-luciferase reporter, maximum fold-increase (FIG. 38) [11]: 5 fold
EC50 [12]: 0.39 nM
EC50 [13]: 0.34 nM
binding result [14]: no binding
binding result (Chimeric TrkB (d4TrkA)): binds
B1: TAM-163 (huTOA-1 v1.0/1.4) (antibody, human IgG1, kappa, V domains shown)
VH: EVQLVESGGGLVQPGGSLRLSCAASGYSFTAYFMNWVRQAPGKGLEWVARINPNNGDTFYTQKFKGRFTISRDNAKNSLYLQMNSLRAEDTAVYYCARRDYFGAMDYWGQGTLVTVSS
VL: DIQMTQSPSSLSASVGDRVTITCRASQTISNNLHWYQQKPGKAPKLLIKSASLAISGVPSRFSGSGSGTDFTLTISSLQPEDFATYYCQQSNSWPNTFGGGTKVEIKR
notes: IgG1 with effector-function ablating CH2; Also used biotinylated; also called humanized TOA-1; Humanized TOA1

Kd [1]: 16.3 nM
Kd [2]: 14.7 nM
binding result [15]: no binding (tested: about 6.7 nM)
EC50 [4]: 0.23 nM
EC50 [5]: 0.4 nM
binding result [6]: no binding (tested: about 6.7 nM)
binding result [16]: no binding (tested: 10.00 ug/ml)
binding result (Chimeric TrkA (d4TrkB)): no binding (tested: 10.00 ug/ml)
binding result (Chimeric TrkB (d5TrkA)): no binding (tested: 1.0000 ug/ml)
B2: mouse TOA-1 antibody (antibody, mouse IgG1, V domains shown)
VH: EVQLQQSGPELVKPGASMKISCKTSGYSFTAYFMNWVKQSHGKSLEWIGRINPNNGDTFYTQKFKGKATLTVDKSSNTAHMELLSLTSEDSAIYYCGRRDYFGAMDYWGQGTSVTVSS
VL: AIVLIQSPATLSVTPGDSVSLSCRASQTISNNLHWYQQKSHESPRLLIKSASLAISGIPSRFSGSGSGTDFTLSISSVETEDFGMYFCQQSNSWPNTFGGGTKLEIK
notes: Hybridoma antibody, cloned with mouse IgG1 and mouse Kappa primers; also called muTOA-1; mTOA-1

Binding Ratio [17]: 2
Binding Ratio (measured, before normalisation) [17]: 2.15
binding result [18]: no binding
Binding Ratio [19]: 0
Binding Ratio [20]: 2
Binding Ratio (measured, before normalisation) [20]: 2.18
B3: C5 (anti-CCL20 antibody, clone C5, parental) (antibody, human IgG1, kappa, V domains shown)
VH: QVQLVQSGAEVKKPGSSVKVSCKASGGTFSSYAISWVRQAPGQGLEWMGGIIPIFGTANYAQKFQGRVTITADESTSTAYMELSSLRSEDTAVYYCAGGSITGTTPFDYWGRGTLVTVSS
VL: AIQLTQSPSSLTASVGDRVTITCRASQFASNDVGWYQQKPGKAPKLLIYAASSLQSGVPPRFSGSGSGTEFTFTISSLQPEDFATYYCLQDYTYPLTFGQGTKVEIKR
notes: also called anti-CCL20-clone5; CCL20-Clone 5
